Measurements from IntAct's records for PubMed 25775511.

B1: Transducer of Cdc42-dependent actin assembly protein 2 homolog (Caenorhabditis elegans), Q9XUS7 (parent)
chain: MIPVSRFFTVQDPSNALLSYTQKGIDFFEKLGQFSKEKAAIEEEYSTKLRSLAKKYAKKSEEDDEILKSVSYTSSFNSFLQQLDQIATRHQTSAEHIRGGVVSYVASKTCQMRSSRKNAINDLKTINDKLEDQINEMCKSGKCYLKSFKDAENSYQKFYKADKNLEISRLELEKARALANARNEACELAKQDYSALVRKTNAEQKRYHVELLPVIFARLKAVDKECIADMRQVLQKIVSFDDSLADSTEECRKIMQREVGKIDAEGDAQLVLKSVEATIEQPAPFEIEDLGDPKNCDSRTNDSADGSGGKLLKSSPSKNRIIRNFLGILKEKEADEKPEASNNDQLMYTDKSKPAHVRLSCLRSKIRDMEKQLEQAIQGREGITRLQQAYYTNPQHGNPSACTEPLISYAKKIEKLKMDIHNLKEFYAMLEMSVEEGQERSFGGRDTPDTTRSMSGSSTNQSSSKTIEDVLSGEAGNSSSADDSSKNILRQLFTTPKRLISSPKTSKSSTPTPLRRRAEISSPKILRSSFSGAIRKSLSTPDSVKVETAVTVTALFEFAKSSAETMSIEQGEILLVLEHDHGDGWTRTKNCRKHNEESGFVPTSYLQFPQ

Variants of: B1
Settings: with cdc42_caeel cdc-42, Q05062
Sequence of cdc42_caeel cdc-42, Q05062 (Q05062 whole entry): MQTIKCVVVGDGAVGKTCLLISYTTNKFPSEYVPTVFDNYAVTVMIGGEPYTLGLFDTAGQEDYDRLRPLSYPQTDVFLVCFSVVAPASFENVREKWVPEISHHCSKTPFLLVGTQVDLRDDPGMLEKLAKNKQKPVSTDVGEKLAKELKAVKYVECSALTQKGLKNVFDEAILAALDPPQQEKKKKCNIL

| effect of a mutation on the interaction | Variant |
| --- | --- |
| disrupting interaction strength | I413S |
